Source: US20230250176A1 (DRAGONFLY THERAPEUTICS, published 2023)

Experiments:
cynomolgus monkey CD16a = target: T1, cynomolgus monkey CD16a (cynomolgus monkey, UniProt Q8SPW2 17-208, limits assumed); assay: SPR
T1 construct: also called cynomolgus monkey FcγRIIIa

cynomolgus monkey FcRn = cynomolgus monkey FcRn (cynomolgus monkey, UniProt Q8SPV9 24-297; Q8SPW0 21-119, limits assumed); assay: SPR, pH 6.0; pH 6.0
[1] = target: T2, purified recombinant human NKG2D (human, UniProt P26718 78-216, limits assumed); assay: SPR (Biacore 8K), 25 C
T2 sequence (looked up): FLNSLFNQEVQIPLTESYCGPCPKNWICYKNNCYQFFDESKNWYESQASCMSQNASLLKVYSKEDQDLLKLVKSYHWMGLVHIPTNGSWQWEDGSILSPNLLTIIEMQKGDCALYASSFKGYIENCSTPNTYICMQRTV

[2] = target: T3, human EGFR (wild type) on cells (human, UniProt P00533 25-1210); assay: cell-based or functional assay
[3] = target: T4, human EGFR T790M, L858R on NCI-H1975 cells (human, UniProt P00533 25-1210); assay: cell-based or functional assay
[4] = target: T5, human EGFR L747-E749del, A750P on HCC4006 cells (human, UniProt P00533 25-1210); assay: cell-based or functional assay
[5] = target: T3, human EGFR (wild type) on cells; assay: cell-based or functional assay; remark: listed apart in the source
[6] = target: T4, human EGFR T790M, L858R on NCI-H1975 …; assay: cell-based or functional assay; remark: listed apart in the source
human NKG2D on cells [7] = target: T6, human NKG2D on cells (human, UniProt P26718 1-216); assay: cell-based or functional assay
T6 sequence (looked up): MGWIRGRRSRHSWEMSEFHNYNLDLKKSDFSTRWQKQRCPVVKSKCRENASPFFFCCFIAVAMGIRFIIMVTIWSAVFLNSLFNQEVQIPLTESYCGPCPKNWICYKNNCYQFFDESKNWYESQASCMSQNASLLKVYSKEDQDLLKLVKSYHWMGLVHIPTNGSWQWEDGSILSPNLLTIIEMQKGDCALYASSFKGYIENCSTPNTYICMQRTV

[8] = target: purified recombinant rat EGFR (rat, UniProt A0ABK0LZB0 35-651); assay: SPR (Biacore 8K), 37 C
[9] = target: purified recombinant mouse EGFR (mouse, UniProt Q01279 25-647, limits assumed); assay: SPR (Biacore 8K), 37 C
[10] = target: T7, purified recombinant human EGFR (human, UniProt P00533 25-645); assay: SPR (Biacore 8K), 37 C
T7 construct: the whole entry is named; also called recombinant human epidermal growth factor receptor

[11] = target: purified recombinant cynomolgus monkey EGFR (cynomolgus monkey, UniProt A0A2K5WK39 25-645); assay: SPR (Biacore 8K), 37 C
[12] = target: T4, human EGFR T790M, L858R on NCI-H1975 …; assay: cell-based or functional assay; remark: listed apart in the source
[13] = target: T3, human EGFR (wild type) on cells; assay: flow cytometry, FaDu cells
[14] = target: T3, human EGFR (wild type) on cells; assay: flow cytometry, HT29 cells
[15] = target: T3, human EGFR (wild type) on cells; assay: flow cytometry, 786-O cells
[16] = target: T3, human EGFR (wild type) on cells; assay: flow cytometry, HCT116 cells
[17] = target: T5, human EGFR L747-E749del, A750P on …; assay: flow cytometry, HCC4006 cells
[18] = target: T3, human EGFR (wild type) on cells; assay: flow cytometry, NCI-H2172 cells
[19] = target: T3, human EGFR (wild type) on cells; assay: flow cytometry, MDA-MB-453 cells
[20] = target: T8, cynomolgus monkey EGFR on primary cynomolgus monkey esophageal epithelial cells (cynomolgus monkey, UniProt A0A2K5WK39 25-1210); assay: flow cytometry on primary cynomolgus monkey esophageal epithelial cells, anti-human Fc-PE secondary
T8 construct: whole, on cells; also called cynomolgus monkey EGFR-expressing cells

human NKG2D on cells [21] = target: T6, human NKG2D on cells; assay: flow cytometry with AF647-conjugated test article on KHYG-1 parental cells (NKG2D, no CD16a); KHYG-1 parental cell line (NKG2D+, CD16a-), titrated from 800 nM

- Kd (cynomolgus monkey CD16a): 80.9 nM
- Kd (cynomolgus monkey FcRn): 900 nM
- Kd [1]: 482 nM
- koff [1]: 0.11 s⁻¹
- kon [1]: 230000 M⁻¹ s⁻¹
- EC50, CD8+ T-cell lysis of 786-O cells (human NKG2D on cells [7]): 0.43 nM
- EC50, CD8+ T-cell lysis of NCI-H1975 cells (human NKG2D on cells [7]): 0.17 nM
- binding result [8]: no binding
- binding result [9]: no binding
- Kd [10]: 4.7 nM
- koff [10]: 0.00095 s⁻¹
- kon [10]: 200000 M⁻¹ s⁻¹
- Kd [11]: 5.9 nM
- koff [11]: 0.001 s⁻¹
- kon [11]: 180000 M⁻¹ s⁻¹
- EC50, NK cell degranulation and cytokine production, human PBMCs with NCI-H1975 [12]: 0.067 nM
- EC50 [13]: 11 nM
- Max FOB [13]: 1200 fold over background
- EC50 [14]: 1.3 nM
- Max FOB [14]: 340 fold over background
- EC50 [15]: 3.5 nM
- Max FOB [15]: 330 fold over background
- EC50 [16]: 1.4 nM
- Max FOB [16]: 300 fold over background
- EC50 [17]: 1.8 nM
- Max FOB [17]: 160 fold over background
- EC50 [18]: 1 nM
- Max FOB [18]: 140 fold over background
- EC50 [19]: 0.33 nM
- Max FOB [19]: 5 fold over background
- EC50 [20]: 1.09 nM
- EC50 (human NKG2D on cells [21]): > 600 nM
B1: EGFR-TriNKET (bispecific antibody, human IgG1, kappa)
chain: DIQMTQSPSSLSASVGDRVTITCQASQDISNYLNWYQQKPGKAPKLLIYDASNLETGVPSRFSGSGSGTDFTFTISSLQPEDIATYYCQHFRHLPLAFGCGTKVEIKGGGGSGGGGSGGGGSGGGGSQVQLQESGPGLVKPSETLSLTCTVSGGSVSSGDYYWTWIRQSPGKCLEWIGHIYYSGNTNYNPRLKSRLTISIDTSKTQFSLKLSSVTAADTAIYYCVRDRVTGAFDIWGQGTMVTVSSGSDKTHTCPPCPAPELLGGPSVFLFPPKPKDTLMISRTPEVTCVVVDVSHEDPEVKFNWYVDGVEVHNAKTKPREEQYNSTYRVVSVLTVLHQDWLNGKEYKCKVSNKALPAPIEKTISKAKGQPREPRVYTLPPCRDELTKNQVSLTCLVKGFYPSDIAVEWESNGQPENNYKTTPPVLVSDGSFTLYSKLTVDKSRWQQGNVFSCSVMHEALHNHYTQKSLSLSPG
heavy: EVQLVESGGGLVKPGGSLRLSCAASGFTFSSYSMNWVRQAPGKGLEWVSSISSSSSYIYYADSVKGRFTISRDNAKNSLYLQMNSLRAEDTAVYYCARGAPIGAAAGWFDPWGQGTLVTVSSASTKGPSVFPLAPSSKSTSGGTAALGCLVKDYFPEPVTVSWNSGALTSGVHTFPAVLQSSGLYSLSSVVTVPSSSLGTQTYICNVNHKPSNTKVDKKVEPKSCDKTHTCPPCPAPELLGGPSVFLFPPKPKDTLMISRTPEVTCVVVDVSHEDPEVKFNWYVDGVEVHNAKTKPREEQYNSTYRVVSVLTVLHQDWLNGKEYKCKVSNKALPAPIEKTISKAKGQPREPQVCTLPPSRDELTENQVSLTCLVKGFYPSDIAVEWESNGQPENNYKTTPPVLDSDGSFFLYSWLTVDKSRWQQGNVFSCSVMHEALHNHYTQKSLSLSPG
light: DIQMTQSPSSVSASVGDRVTITCRASQGISSWLAWYQQKPGKAPKLLIYAASSLQSGVPSRFSGSGSGTDFTLTISSLQPEDFATYYCQQGVSFPRTFGGGTKVEIKRTVAAPSVFIFPPSDEQLKSGTASVVCLLNNFYPREAKVQWKVDNALQSGNSQESVTEQDSKDSTYSLSSTLTLSKADYEKHKVYACEVTHQGLSSPVTKSFNRGEC
notes: also called EGFR-TriNKET-3
- EC50, short-term NK cell-mediated cytotoxicity (DELFIA), 786-O [2]: 0.048 nM
- EC50, short-term NK cell-mediated cytotoxicity (DELFIA), BT474 [2]: 0.29 nM
- EC50, short-term NK cell-mediated cytotoxicity (DELFIA), Detroit 562 [2]: 0.058 nM
- EC50, short-term NK cell-mediated cytotoxicity (DELFIA), FaDu [2]: 0.011 nM
- EC50, short-term NK cell-mediated cytotoxicity (DELFIA), HCT116 [2]: 0.054 nM
- EC50, short-term NK cell-mediated cytotoxicity (DELFIA), HT29 [2]: 0.019 nM
- EC50, short-term NK cell-mediated cytotoxicity (DELFIA), KYSE-30 [2]: 0.0053 nM
- EC50, short-term NK cell-mediated cytotoxicity (DELFIA), NCI-H292 [2]: 0.0088 nM
- EC50, short-term NK cell-mediated cytotoxicity (DELFIA), NCI-H1703 [2]: 0.022 nM
- EC50, short-term NK cell-mediated cytotoxicity (DELFIA), NCI-H2172 [2]: 0.079 nM
- EC50, short-term NK cell-mediated cytotoxicity (DELFIA), NCI-H1975 [3]: 0.1 nM
- EC50, short-term NK cell-mediated cytotoxicity (DELFIA), HCC4006 [4]: 0.092 nM
- EC50, long-term NK cell-mediated cytotoxicity (IncuCyte, 72 h, 50% human serum), KYSE-30, NK CD16a F/F (n = 2) [5]: 0.015 nM
- EC50, long-term NK cell-mediated cytotoxicity, 786-O, NK CD16a F/F (n = 2) [5]: 0.24 nM
- EC50, long-term NK cell-mediated cytotoxicity, 786-O, NK CD16a V/F (n = 1) [5]: 0.15 nM
- EC50, long-term NK cell-mediated cytotoxicity, HCT116, NK CD16a F/F (n = 2) [5]: 0.28 nM
- EC50, long-term NK cell-mediated cytotoxicity, HCT116, NK CD16a V/V (n = 1) [5]: 0.21 nM
- EC50, long-term NK cell-mediated cytotoxicity, KYSE-30, NK CD16a V/F (n = 1) [5]: 0.013 nM
- EC50, long-term NK cell-mediated cytotoxicity, NCI-H1975, NK CD16a F/F (n = 2) [6]: 0.23 nM
- EC50, long-term NK cell-mediated cytotoxicity, NCI-H1975, NK CD16a V/F (n = 1) [6]: 0.09 nM
